Measurements published in US20110287936.

Columns and labels:
Test in all cases: SPR
[1] = target: L7-1F08-A11 (L7A11, EsR A11) (Artificial Sequence) (UniProt P04483); settings: ka 7.1e4 M-1 s-1, kd 1.7e-2 s-1; operator sequence not given for SPR
[2] = tested on: L7-1G06-B2 (Artificial Sequence); settings: ka 4.6e4 M-1 s-1, kd 1.9e-2 s-1; operator sequence not given for SPR
[3] = target: Wt TetR(B) (Tn10) (Escherichia coli) (UniProt P04483); settings: ka 3.3e5 M-1 s-1, kd 3.0e-3 s-1; operator sequence not given for SPR
[4] = tested on: L7-1C03-A5 (EsR1) (Artificial Sequence); settings: ka 4.7e4 M-1 s-1, kd 7.8e-3 s-1; operator sequence not given for SPR
[5] = tested on: L7-3E03-D1 (EsR D01) (Artificial Sequence); settings: ka 5.5e4 M-1 s-1, kd 1.1e-2 s-1; operator sequence not given for SPR

## tet operator used for SPR
[1]
  Kd: 250 nM
[2]
  Kd: 430 nM
[3]
  Kd: 9 nM
[4]
  Kd: 150 nM
[5]
  Kd: 200 nM
